Measured values taken from US20220088195A1, “Prevention or mitigation of T-cell bispecific antibody-related adverse effects” (Hoffmann-La Roche Inc., priority 2020, published 2022).

Tested on: MKN45 NLR target cells
Assay: Reversibility killing assay with two and three stimulations (OFF/ON, ON/OFF/ON), MKN45 NLR + CEA-TCB, Incucyte
Format: cell-based, human
Settings: 1 nM CEA-TCB, no dasatinib
Protocol: FIG. 16. In vitro killing assay set-up and timelines. PBMCs were stimulated on MKN45 NLR (E:T=10:1) target cells with 1 nM CEA-TCB for 96 hours. Activated PBMCs were washed and restimulated on new MKN45 NLR target cells (E:T=10:1) with 1 nM CEA-TCB in the presence of 25 nM dasatinib for 72 hours. Activated PBMCs were washed to remove dasatinib and restimulated on new MKN45 NLR target cells (E:T=10:1) with 1 nM CEA-TCB (“ON/OFF/ON”, see upper row of table), or vice versa (“OFF/ON/OFF”, see lower row of table). Killing was followed by Incucyte®.
FIG. 17. Real time killing of MKN45 NLR target cells by CEA-TCB in the presence of 25 nM dasatinib (0-72 h) upon first stimulation and in the absence of 25 nM dasatinib (96-170 h) upon restimulation, in the assay of FIG. 16 (“OFF/ON”).
FIG. 19. Real time killing of MKN45 NLR target cells by CEA-TCB in the assay of FIG. 16 (“ON/OFF/ON”).
FIG. 21. CEA-TCB mediated target cell killing. (A) PBMCs were stimulated on MKN45 NLR (E:T=10:1) target cells with 1 nM CEA-TCB for 96 hours in the presence and absence of dasatinib. (B) Activated PBMCs were washed to remove dasatinib and restimulated on new MKN45 NLR target cells (E:T=10:1) with 1 nM CEA-TCB. Killing was followed by Incucyte®.
We then verified if dasatinib's effect is reversible upon its removal. Therefore we set-up a killing assay with two and three stimulations in the presence and absence of dasatinib and followed the killing kinetics using an Incucyte® system (FIG. 16). After each stimulation, effector cells were washed and re-stimulated on fresh MKN45 NLR target cells with 1 nM CEA TCB in the presence and absence of dasatinib allowing to mimic OFF/ON switch and ON/OFF/ON switch.
Lastly, we evaluated if the effect of dasatinib was reversible on activated T cells. Consequently, we supplemented the media with 25 nM dasatinib upon the second stimulation with 1 nM CEA-TCB to prevent killing from activated T cells and then removed the dasatinib upon third stimulation with 1 nM CEA-TCB to verify if killing would be restored. […] We concluded that the effect of dasatinib in the prevention of T cell activation and cytotoxicity is reversible.
For T-cell engaging antibodies, cytokine release peaks are higher upon the first treatment than after subsequent treatments. We were curious to see if low doses of dasatinib could prevent cytokine release while minimally affecting TCB-efficacy upon first stimulation. In killing assays as described in FIG. 16, the cytokine levels upon first treatment with 1 nM CEA-TCB in the presence of 6.25 nM and 12.5 nM dasatinib and upon second treatment with 1 nM CEA-TCB in the absence of dasatinib were measured in the supernatants. […] Its removal upon second stimulation may also balance the cytokine release and restore TCB-induced cytotoxicity due to the reversibility properties of dasatinib.

B1: CEA-TCB: T cell bispecific antibody binding CEA and CD3 (SEQ ID NOs 28-47) (antibody, chains of the INN, looked up, V domains shown)
VH: QVQLVQSGAEVKKPGASVKVSCKASGYTFTEFGMNWVRQAPGQGLEWMGWINTKTGEATYVEEFKGRVTFTTDTSTSTAYMELRSLRSDDTAVYYCARWDFAYYVEAMDYWGQGTTVTVSS
VL: DIQMTQSPSSLSASVGDRVTITCKASAAVGTYVAWYQQKPGKAPKLLIYSASYRKRGVPSRFSGSGSGTDFTLTISSLQPEDFATYYCHQYYTYPLFTFGQGTKLEIK
VH2: QVQLVQSGAEVKKPGASVKVSCKASGYTFTEFGMNWVRQAPGQGLEWMGWINTKTGEATYVEEFKGRVTFTTDTSTSTAYMELRSLRSDDTAVYYCARWDFAYYVEAMDYWGQGTTVTVSS
VL2: QAVVTQEPSLTVSPGGTVTLTCGSSTGAVTTSNYANWVQEKPGQAFRGLIGGTNKRAPGTPARFSGSLLGGKAALTLSGAQPEDEAEYYCALWYSNLWVFGGGTKLTVL
**Q.** How did the “killing of MKN45 cells after first stimulation” value turn out when B1 was run?
**A.** triggered the killing
